Where two headings read alike, the source gives them in different places.
Assays:
[1] = Determination of radiotracer lipophilicity (logD, phosphate buffer/1-octanol); assay type: physicochemical; details: phosphate buffer (0.05 M, pH 7.4) / 1-octanol, six independent experiments
Protocol: Determination of radiotracer lipophilicity. The heterobivalent ligands (22–26) as well as the monomeric reference compounds (27 and 28) were radiolabeled with ^68Ga as described before and 2 µL of the product solution (~65 pmol of the respective radioligand) were added to a mixture of phosphate buffer (0.05 M, pH 7.4, 800 µL) and 1-octanol (800 µL) and incubated for 5 min at ambient temperature under vigorous shaking. Both phases were separated by centrifugation and 100 µL of each phase were measured for radioactivity in a gamma-counter. […] (cpm = counts per minute), cpmw = activity in the aqueous phase [cpm]. These experiments were performed six times independently.

[2] = Stability of the 68Ga-labeled ligands in human serum; assay type: in vitro ADME; details: after 90 min incubation at 37 °C, radio-HPLC
Protocol: Determination of the stability of the ligands in human serum. The heterobivalent ligands (22–26) as well as the monomeric reference compounds (27 and 28) were radiolabeled with ^68Ga as described before and 125 µL of the product solution were added to 500 µL of human serum and incubated at 37 °C. At defined time-points of 5, 15, 30, 60 and 90 min, aliquots of 75 µL of the mixture were added to 75 µL of ethanol and the precipitation of serum proteins was enhanced by ice-cooling for 2 min. After centrifugation, supernatant and precipitate were measured for radioactivity and the supernatant was analyzed by analytical radio-HPLC. These experiments were performed thrice.

T-47D cells = experiment: In vitro cell uptake (internalization) study in T-47D cells; assay type: cell-based, human; details: after 4 h, % of total added activity
Protocol: Cell culture. All cell lines were grown in suitable culture medium at 37 °C in a humidified CO2 (5%) atmosphere. The human breast cancer cell lines T-47D, MDA-MB-231 and MCF-7 were grown in Dulbecco’s Modified Eagle Medium (DMEM), supplemented with 10% (v/v) fetal calf serum (FCS) and 1% (v/v) L-Glutamine. For a high expression of the NPY(Y1) receptor on T-47D cells, the medium for this cell line was further supplemented with 0.15% (w/v) β-estradiol. The BT-474 and PC-3 cell lines were grown in RPMI-1640 medium, also supplemented with 10% (v/v) fetal calf serum (FCS) and 1% (v/v) L-Glutamine.
Internalization studies. Cells (T-47D, MDA-MB-231, MCF-7, BT-474 and PC-3, 1.5 × 10^6 cells per well) were seeded into 6-well plates and incubated overnight at 37 °C in a humidified CO2 (5%) atmosphere. The next day, the medium was removed and the cells were washed twice with the respective medium without supplements (ice-cold, 1 mL) and incubated with 3.7–4.0 kBq (0.37–4.0 pmol) of the respective ^68Ga-radiolabeled ligand [^68Ga]22−[^68Ga]26, [^68Ga]27 or [^68Ga]28 (in 1.5 mL medium, containing 0.5% (w/v) BSA) for defined time-points of 1, 2, 3 or 4 h at 37 °C in a humidified CO2 (5%) atmosphere. A 1000-fold excess of the respective peptide (3 or 4) was used for blocking to determine the non-specific cell uptake. At each time point, the medium was removed and the cells were washed twice with the respective medium without supplements (ice-cold, 1 mL). Cells were treated twice with 1 mL glycine buffer (ice-cold, 50 mM glycine, 100 mM NaCl, pH 2.8) for 5 min at room temperature, followed by 2 mL NaOH solution (1 M) for 10 min at 37 °C. The supernatants were collected and the radioactivity measured in a gamma counter. The internalized and surface bound activity was expressed as percentage of measured to total added activity. Each data point was generated thrice in triplicates.

T-47D tumor = experiment: Small animal PET/CT imaging in T-47D tumor-bearing mice; assay type: in vivo; details: PET imaging, i.v. 5.5-8.0 MBq, n = 4
Protocol: In vivo experiments. All animal experiments were performed in compliance with the German animal protection laws and protocols of the local committee (Regierungspräsidium Karlsruhe, approval number: 35-9185.81/G-206/15). 20, six week old female immunodeficient Fox Chase SCID (CB17/Icr-Prkdc^scid/IcrIcoCrl) mice with an average weight of 20 g were subcutaneously implanted with 17β-estradiol pellets (0.36 mg/60 days). 4 days later, the tumors were induced by subcutaneous inoculation of 5 × 10^6 T-47D cells into the left flank of the […]. After induction, the tumors were allowed to grow for 8–10 weeks and reached a diameter of about 0.5 cm. […] After the end of the diagnostic scan, the animals were sacrificed, the organs were collected and measured in a gamma-counter.
The dynamic PET images were reconstructed using the Albira Suite Reconstructor (Bruker) with an iterative dynamic reconstruction with 12 iterations using an 2D-Maximum-Likelihood Expectation-Maximization (MLEM) algorithm and a cubic image voxel size of 0.5 mm after scatter and decay correction. […] The reconstructed PET data were manually fused with the CT images using PMOD 3.6.1.1. and analyzed. Volumes of interest (VOIs) were defined for the quantification of tracer accumulation in heart, liver, kidneys, tumor, and muscle. The results for each VOI were calculated as SUV (kBq/cm^3) averaged for each time frame.

[3] = Ex vivo biodistribution in T-47D tumor-bearing mice; details: female, Fox Chase SCID (CB17/Icr-Prkdc^scid/IcrIcoCrl), mouse, in vivo, iv, total radioactivity, ex vivo biodistribution at 130 min p.i.
Protocol: (§1) In vivo experiments. All animal experiments were performed in compliance with the German animal protection laws and protocols of the local committee (Regierungspräsidium Karlsruhe, approval number: 35-9185.81/G-206/15). 20, six week old female immunodeficient Fox Chase SCID (CB17/Icr-Prkdc^scid/IcrIcoCrl) mice with an average weight of 20 g were subcutaneously implanted with 17β-estradiol pellets (0.36 mg/60 days). 4 days later, the tumors were induced by subcutaneous inoculation of 5 × 10^6 T-47D cells into the left flank of the […]. After induction, the tumors were allowed to grow for 8–10 weeks and reached a diameter of about 0.5 cm. For imaging, the animals were anaesthetized with isoflurane and injected with 5.5–8.0 MBq of the respective radioligand ([^68Ga]24, [^68Ga]24a or [^68Ga]24b) into the lateral tail vein. Dynamic PET images were acquired over 90 min and CT images were obtained within further 30 min. After the end of the diagnostic scan, the animals were sacrificed, the organs were collected and measured in a gamma-counter.

T-47D tumor-bearing mice = experiment: as above; details: 130 min p.i.
Protocol: as §1

SMILES: CCCC[C@H](NC(=O)[C@H](CCCNC(=N)N)NC(=O)[C@H](Cc1c[nH]c2ccccc12)NC(=O)[C@H](CCCCNC(=O)CON=Cc1ccc(C(=O)NCCOCCOCCOCCOCCC(=O)NCCCN(CCCNC(=O)CCOCCOCCOCCOCCNC(=O)c2ccc(C=NOCC(=O)NCCOCCOCCOCCOCCC(=O)N[C@@H](CCC(N)=O)C(=O)N[C@@H](Cc3c[nH]c4ccccc34)C(=O)N[C@@H](C)C(=O)N[C@H](C(=O)NCC(=O)N[C@@H](Cc3c[nH]cn3)C(=O)N[C@@H](CC(C)C)C(=O)N[C@@H](CCSC)C(N)=O)C(C)C)cc2)CC(=O)NCCOCCOCCOCCOCCC(=O)N[C@@H](CCCCNC(=O)CCC(C(=O)O)N2CCN(CC(=O)O)CCN(CC(=O)O)CC2)C(N)=O)cc1)NC(=O)[C@@H]1CCCN1C(=O)[C@H](CC(N)=O)NC(=O)[C@@H](N)[C@@H](C)CC)C(=O)N[C@@H](CCCNC(=N)N)C(=O)N[C@@H](Cc1ccc(O)cc1)C(N)=O (stereo partly drawn) [[^68Ga]24, metal not drawn]
- logD [1]: -1.67 ± 0.086
- degradation in human serum [2]: no observable fragmentation
- specific cell uptake (T-47D cells): 50.1 ± 2.4%
- tumor activity concentration at 85 min (T-47D tumor): 122.03 ± 16.27 kBq/cm^3
- tissue to tissue ratio at 130 min ([3]; read-out: tumor-to-blood ratio (T / B)): 2.72 ± 0.43
- tissue to tissue ratio at 130 min ([3]; read-out: tumor-to-muscle ratio (T / M)): 11.8 ± 1.83
- adrenal glands uptake (T-47D tumor-bearing mice; adrenal glands): 3.57 ± 2.18 ID/g in %
- blood uptake (T-47D tumor-bearing mice; blood): 1.13 ± 0.77 ID/g in %
- bone uptake (T-47D tumor-bearing mice; bone): 0.26 ± 0.14 ID/g in %
- brain uptake (T-47D tumor-bearing mice; brain): 0.11 ± 0.14 ID/g in %
- heart uptake (T-47D tumor-bearing mice; heart): 0.52 ± 0.38 ID/g in %
- kidneys uptake (T-47D tumor-bearing mice; kidneys): 34.79 ± 11.03 ID/g in %
- large intestines uptake (T-47D tumor-bearing mice; large intestines): 1.80 ± 0.64 ID/g in %
- liver uptake (T-47D tumor-bearing mice; liver): 10.02 ± 1.54 ID/g in %
- lung uptake (T-47D tumor-bearing mice; lung): 0.62 ± 0.17 ID/g in %
- muscle uptake (T-47D tumor-bearing mice; muscle): 0.26 ± 0.18 ID/g in %
- pancreas uptake (T-47D tumor-bearing mice; pancreas): 10.54 ± 3.13 ID/g in %
- small intestines uptake (T-47D tumor-bearing mice; small intestines): 1.49 ± 0.36 ID/g in %
- spleen uptake (T-47D tumor-bearing mice; spleen): 1.32 ± 0.33 ID/g in %
- stomach uptake (T-47D tumor-bearing mice; stomach): 1.47 ± 0.44 ID/g in %
- tail uptake (T-47D tumor-bearing mice; tail): 1.30 ± 1.21 ID/g in %
- tumor uptake (T-47D tumor-bearing mice; tumor): 3.07 ± 0.33 ID/g in %

SMILES: CCCC[C@H](NC(=O)[C@H](CCCNC(=N)N)NC(=O)[C@H](Cc1c[nH]c2ccccc12)NC(=O)[C@H](CCCCNC(=O)CON=Cc1ccc(C(=O)NC2CCN(CC(=O)NCCCN(CCCNC(=O)CN3CCC(NC(=O)c4ccc(C=NOCC(=O)NCCOCCOCCOCCOCCC(=O)N[C@@H](CCC(N)=O)C(=O)N[C@@H](Cc5c[nH]c6ccccc56)C(=O)N[C@@H](C)C(=O)N[C@H](C(=O)NCC(=O)N[C@@H](Cc5c[nH]cn5)C(=O)N[C@@H](CC(C)C)C(=O)N[C@@H](CCSC)C(N)=O)C(C)C)cc4)CC3)CC(=O)NCCOCCOCCOCCOCCC(=O)N[C@@H](CCCCNC(=O)CCC(C(=O)O)N3CCN(CC(=O)O)CCN(CC(=O)O)CC3)C(N)=O)CC2)cc1)NC(=O)[C@@H]1CCCN1C(=O)[C@H](CC(N)=O)NC(=O)[C@@H](N)[C@@H](C)CC)C(=O)N[C@@H](CCCNC(=N)N)C(=O)N[C@@H](Cc1ccc(O)cc1)C(N)=O (stereo partly drawn) [[^68Ga]25, metal not drawn]
- logD [1]: -1.55 ± 0.114
- specific cell uptake (T-47D cells): 48.2 ± 2.8%
